Assay results taken from publication PMC9481602 (2022).

Columns and labels:
[1] = molecular target: ubiquitin acetylated at K48 (UniProt P0CG48 1-76, acetyllysine (AcK) at position 48); assay: NMR
[2] = molecular target: nonmodified ubiquitin (UniProt P0CG48 1-76); assay: NMR

B1: UBA domain of human Ubiquilin-2 (domain or fragment)
chain: RFQQQLEQLNAMGFLNREANLQALIATGGDINAAIERLLGS
With B1 the Kd [1] was 1300 nM and the Kd [2] was 500 nM.
